Reference: patent US6562587 (ASTRA PHARMA, dated 2003)
Non-standard residues stand in square brackets, D forms with d. No end group written: not given here.

What was measured:
[1] = molecular target: delta opioid receptor naturally expressed by NG 108-15 cells (UniProt P32300); test: Table 1, NG 108-15 column (method not described)
[2] = molecular target: T1, K56 receptor (mouse delta opioid receptor encoded by clone K56) (mouse, UniProt P32300 1-372); test: radioligand binding, 1 nM ^3H-DTLET on monolayer Cos-1 cells transfected with K56
T1 construct: Expressed transiently in Cos-1 cells from plasmid pCDM8-K56; 371 amino acids; also called K56 protein; Cos K56

Molecule	PKi [1]	signal over background [2] [fold]
cyclic [D-penicillamine^2, D-penicillamine^5]-enkephalin (peptide)	8.3	
Y[dT]GFLT (not fully specified, Synthetic delta-selective enkephalin analogue used as the radioligand; also called ^3H-DTLET) [Tyr-D-Thr-Gly-Phe-Leu-Thr (DTLET), labelled with tritium]		6
